Assay results from the supplement of paper PMC12042874.
± gives the uncertainty stated by the source.

Assay: amyloid nucleation score (Sup35N fusion, yeast selection) (log enrichment); library NNK2; higher = more nucleation; inactive = no reads after selection
In short: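 Plasmid inserts were Illumina-sequenced at input and output from psi-negative yeast expressing Sup35N fused to peptides of 20 random codons. The yeast were induced with 100 μM copper sulfate for 24 hours and grown 7 days at 30°C on medium lacking adenine and uracil, and sequences with under 100 input reads were excluded. Nucleation score is the DiMSum log enrichment of output over input reads, centred on the mode score of non-aggregating sequences.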

Q: Which amyloid nucleation score does the source give for TNSTPPVKLYWIMKLLDRFR here?
A: inactive

Q: Which amyloid nucleation score does the source give for TNSYANMSGTAGNYRSYNIA here?
A: -0.522 ± 0.63

Q: With TNTCFFSNGGRTSKWHPVLV as the substance, how does the amyloid nucleation score read?
A: 0.135 ± 0.56

Q: For TPDAGMWNYECYIVTVW, which amyloid nucleation score is on record?
A: -0.615 ± 0.49

Q: For TPLYFRYVTIHYRGHVKVDV, which amyloid nucleation score is on record?
A: 0.688 ± 0.81

Q: For TPVQDNYSYFIFKPIDESIA, which amyloid nucleation score is on record?
A: 2.19 ± 0.12

Q: Which amyloid nucleation score does the source give for TQPPNCQVYKRDDTCYWCGS here?
A: -0.509 ± 0.33

Q: Which amyloid nucleation score does the source give for TRCGMEAYMSLDMGLYERPM here?
A: -0.762 ± 0.41

Q: For TRGPR, which amyloid nucleation score is on record?
A: 0.76 ± 0.46

Q: Which amyloid nucleation score does the source give for TRHSGKLLFNILMFRVMSCR here?
A: -0.36 ± 0.74

Q: With TRLPEMGLMDLITRSCYNRD as the substance, how does the amyloid nucleation score read?
A: -1.35 ± 0.75

Q: For TRNNLSVERQKVRAMSCEKC, which amyloid nucleation score is on record?
A: -0.038 ± 1.1

Q: For TRTLRDGVHVGEPLAVYWCC, which amyloid nucleation score is on record?
A: 9.477 ± 0.028

Q: For TRTNEVSGNAESKNCRCYIG, which amyloid nucleation score is on record?
A: 0.404 ± 0.29

Q: For TRVDDLIR, which amyloid nucleation score is on record?
A: -0.191 ± 0.32

Q: For TRVLYPACVCHGRSISFGVE, which amyloid nucleation score is on record?
A: 0.134 ± 0.44

Q: With TSDYYTSNVQDSALRHFFSP as the substance, how does the amyloid nucleation score read?
A: -0.081 ± 0.34

Q: For TSGLILL, which amyloid nucleation score is on record?
A: -0.301 ± 0.37

Q: With TSGLMMSVCKFDLWQNVND as the substance, how does the amyloid nucleation score read?
A: 3.81 ± 0.09

Q: For TSGWNAERMFEHINGQFVFL, which amyloid nucleation score is on record?
A: -0.195 ± 0.49

Q: For TSLFVLVVGLGLCK, which amyloid nucleation score is on record?
A: 2.91 ± 0.19

Q: With TSLGGWVLERRCLPDAADMR as the substance, how does the amyloid nucleation score read?
A: 1.2 ± 0.31

Q: With TSRLNMVTSHVLKWCDNRSR as the substance, how does the amyloid nucleation score read?
A: -0.516 ± 0.5

Q: For TSRPMALQGYSGNSDDVTYV, which amyloid nucleation score is on record?
A: 0.445 ± 0.65

Q: For TSTIYGLTPRFGNMAHSAVV, which amyloid nucleation score is on record?
A: 0.227 ± 0.65

Q: Which amyloid nucleation score does the source give for TSVFFQGIALP here?
A: 8.228 ± 0.029

Q: Which amyloid nucleation score does the source give for TSVIIIGYCI here?
A: 5.997 ± 0.034

Q: For TSVNSILRYFRSRAMLKQGS, which amyloid nucleation score is on record?
A: 1.11 ± 0.45

Q: With TSYIYLMISASPQFLS as the substance, how does the amyloid nucleation score read?
A: 4.04 ± 0.11

Q: With TSYSTPRMGPLTPRLSSG as the substance, how does the amyloid nucleation score read?
A: 0.388 ± 0.25

Q: With TTHCRLYMYVWWMYVVIFFD as the substance, how does the amyloid nucleation score read?
A: 2.11 ± 0.16

Q: With TTKPSAILWGSTSKRPRLPR as the substance, how does the amyloid nucleation score read?
A: 1.23 ± 0.34

Q: With TTLMWVWFIGFWP as the substance, how does the amyloid nucleation score read?
A: 6.139 ± 0.04

Q: Which amyloid nucleation score does the source give for TTLVSSGYKYFCDVFTGVNA here?
A: -1.45 ± 0.63

Q: For TTPGTDSLMAEII, which amyloid nucleation score is on record?
A: 1.01 ± 0.49

Q: For TTRIS, which amyloid nucleation score is on record?
A: inactive

Q: For TTSKISSSKSLEARHTSHLP, which amyloid nucleation score is on record?
A: 0.985 ± 0.27

Q: With TTTAERSVRPVSCDGFIACG as the substance, how does the amyloid nucleation score read?
A: 3.56 ± 0.054

Q: With TTVDSNIRAYIFKVARYHYK as the substance, how does the amyloid nucleation score read?
A: -0.488 ± 1

Q: With TVAGYCVPSSSCRTGTFTVC as the substance, how does the amyloid nucleation score read?
A: -0.567 ± 0.33

Q: For TVFLIDTYTYDTVFNTSRCR, which amyloid nucleation score is on record?
A: 3.76 ± 0.041

Q: Which amyloid nucleation score does the source give for TVGHDQASYMGFGSFYTSVF here?
A: -0.538 ± 0.76

Q: For TVGNF, which amyloid nucleation score is on record?
A: 1.25 ± 0.47

Q: For TVHFLHILIIFRSWSEGMPV, which amyloid nucleation score is on record?
A: -0.345 ± 0.74

Q: With TVIFVCHFTKVDCVSNTQSY as the substance, how does the amyloid nucleation score read?
A: 3.42 ± 0.1

Q: With TVIRNLVICSFEYCRDMITR as the substance, how does the amyloid nucleation score read?
A: 8.195 ± 0.075

Q: Which amyloid nucleation score does the source give for TVLCTRRLAWRYRLHFFFQ here?
A: 3.16 ± 0.073

Q: For TVLLMIMMYFIANSFYVACG, which amyloid nucleation score is on record?
A: 5.89 ± 0.066

Q: With TVMTFEYSEHVFRDMDT as the substance, how does the amyloid nucleation score read?
A: -0.501 ± 1

Q: With TVNLVFSTRG as the substance, how does the amyloid nucleation score read?
A: 4.64 ± 0.059

Q: For TVQDMFIFIFYVYNSFGRYM, which amyloid nucleation score is on record?
A: 3.35 ± 0.052

Q: With TVRMIMLANLIQSYWHTIVS as the substance, how does the amyloid nucleation score read?
A: -0.153 ± 0.65

Q: Which amyloid nucleation score does the source give for TVSYKWSSMEVITKYKGWSR here?
A: 0.897 ± 0.28

Q: With TVTSLRSLPIMSMPCRETTD as the substance, how does the amyloid nucleation score read?
A: 1.1 ± 0.25

Q: Which amyloid nucleation score does the source give for TVVKDHEYKEWSDWSF here?
A: inactive

Q: For TVWNHVTGLDKNSRCVTQSS, which amyloid nucleation score is on record?
A: 0.509 ± 0.81

Q: For TWESSV, which amyloid nucleation score is on record?
A: 0.613 ± 0.2

Q: For TWGGFRY, which amyloid nucleation score is on record?
A: 1.76 ± 0.48

Q: Which amyloid nucleation score does the source give for TWHSIWREYSGTFTHTYWTD here?
A: 0.555 ± 0.62

Q: With TWMSYFVHVSVGFLVYYLYI as the substance, how does the amyloid nucleation score read?
A: -0.919 ± 1

Q: Which amyloid nucleation score does the source give for TWTHCIGSLIR here?
A: -0.855 ± 0.76

Q: For TYATNSRRNRNVYLRPHCQI, which amyloid nucleation score is on record?
A: 0.117 ± 0.3

Q: For TYDSYRVIYISY, which amyloid nucleation score is on record?
A: -0.372 ± 0.61

Q: With TYFYSWYGKYPADSRFY as the substance, how does the amyloid nucleation score read?
A: -0.488 ± 1

Q: Which amyloid nucleation score does the source give for TYIRDRHIVYWGHTGSFIYM here?
A: 1.63 ± 0.18

Q: For TYLSVGMNLLVGSPFNYNDL, which amyloid nucleation score is on record?
A: inactive

Q: For TYPMMGQGFC, which amyloid nucleation score is on record?
A: 0.131 ± 0.55

Q: With TYPNKADPLFRS as the substance, how does the amyloid nucleation score read?
A: 0.008 ± 0.46

Q: With TYSFVSLTYDSVTVFALTRC as the substance, how does the amyloid nucleation score read?
A: -0.326 ± 0.49

Q: Which amyloid nucleation score does the source give for TYSTSSLYRMEIHLAFSASV here?
A: -0.22 ± 1

Q: Which amyloid nucleation score does the source give for TYVLAIGLFWRYPF here?
A: 3.22 ± 0.083

Q: With TYVVKLLIGWDLDAIFTVLS as the substance, how does the amyloid nucleation score read?
A: 0.499 ± 0.37

Q: For VACCFNSQYSEAI, which amyloid nucleation score is on record?
A: 3.99 ± 0.076

Q: Which amyloid nucleation score does the source give for VAFIYCIV here?
A: 4.99 ± 0.068

Q: Which amyloid nucleation score does the source give for VAFKRLGNMSSGTFSWAMLN here?
A: 0.894 ± 0.74

Q: For VAKAAHFSLVIMYLFK, which amyloid nucleation score is on record?
A: 0.01 ± 0.43

Q: For VASKGCRYYNRLADFLHWSK, which amyloid nucleation score is on record?
A: 0.027 ± 0.74

Q: With VCACLNMTCVFFILTGNGVK as the substance, how does the amyloid nucleation score read?
A: 7.59 ± 0.039

Q: With VCCVP as the substance, how does the amyloid nucleation score read?
A: -1.09 ± 1.1

Q: Which amyloid nucleation score does the source give for VCDFIW here?
A: -1.48 ± 0.63

Q: With VCDGV as the substance, how does the amyloid nucleation score read?
A: -0.582 ± 0.44

Q: With VCLFLSNQRMWYVEFNTC as the substance, how does the amyloid nucleation score read?
A: -0.549 ± 1

Q: Which amyloid nucleation score does the source give for VCYGVSFPIGWGYQYHNRNV here?
A: inactive

Q: For VDFVIGLLKPTVVKNHGCWS, which amyloid nucleation score is on record?
A: -0.301 ± 0.65

Q: With VDHSMVCWVRCMGC as the substance, how does the amyloid nucleation score read?
A: 0.19 ± 1.1

Q: For VDIVFSPSTNQWFLFLNCLV, which amyloid nucleation score is on record?
A: 4.24 ± 0.038
